{
  "source": "paper PMC8605104",
  "about": "(STAR Protocols, 2021)",
  "binders": {"B1": {"name": "bacteriophage T7 ejection protein gp15 (internal virion protein), N-terminal 10x His-tagged, full-length (natural protein, UniProt P03725 1-747, looked up)", "chain": "MSKIESALQAAQPGLSRLRGGAGGMGYRAATTQAEQPRSSLLDTIGRFAKAGADMYTAKEQRARDLADERSNEIIRKLTPEQRREALNNGTLLYQDDPYAMEALRVKTGRNAAYLVDDDVMQKIKEGVFRTREEMEEYRHSRLQEGAKVYAEQFGIDPEDVDYQRGFNGDITERNISLYGAHDNFLSQQAQKGAIMNSRVELNGVLQDPDMLRRPDSADFFEKYIDNGLVTGAIPSDAQATQLISQAFSDASSRAGGADFLMRVGDKKVTLNGATTTYRELIGEEQWNALMVTAQRSQFETDAKLNEQYRLKINSALNQEDPRTAWEMLQGIKAELDKVQPDEQMTPQREWLISAQEQVQNQMNAWTKAQAKALDDSMKSMNKLDVIDKQFQKRINGEWVSTDFKDMPVNENTGEFKHSDMVNYANKKLAEIDSMDIPDGAKDAMKLKYLQADSKDGAFRTAIGTMVTDAGQEWSAAVINGKLPERTPAMDALRRIRNADPQLIAALYPDQAELFLTMDMMDKQGIDPQVILDADRLTVKRSKEQRFEDDKAFESALNASKAPEIARMPASLRESARKIYDSVKYRSGNESMAMEQMTKFLKESTYTFTGDDVDGDTVGVIPKNMMQVNSDPKSWEQGRDILEEARKGIIASNPWITNKQLTMYSQGDSIYLMDTTGQVRVRYDKELLSKVWSENQKKLEEKAREKALADVNKRAPIVAATKAREAAAKRVREKRKQTPKFIYGRKE"}},
  "key": {"[1]": {"biological_target": "T1, bacteriophage T7 ejection protein gp16 (internal virion protein), N-terminal 10x His-tagged, full-length (bacteriophage T7, UniProt P03726 1-1318)", "T1 sequence (looked up)": "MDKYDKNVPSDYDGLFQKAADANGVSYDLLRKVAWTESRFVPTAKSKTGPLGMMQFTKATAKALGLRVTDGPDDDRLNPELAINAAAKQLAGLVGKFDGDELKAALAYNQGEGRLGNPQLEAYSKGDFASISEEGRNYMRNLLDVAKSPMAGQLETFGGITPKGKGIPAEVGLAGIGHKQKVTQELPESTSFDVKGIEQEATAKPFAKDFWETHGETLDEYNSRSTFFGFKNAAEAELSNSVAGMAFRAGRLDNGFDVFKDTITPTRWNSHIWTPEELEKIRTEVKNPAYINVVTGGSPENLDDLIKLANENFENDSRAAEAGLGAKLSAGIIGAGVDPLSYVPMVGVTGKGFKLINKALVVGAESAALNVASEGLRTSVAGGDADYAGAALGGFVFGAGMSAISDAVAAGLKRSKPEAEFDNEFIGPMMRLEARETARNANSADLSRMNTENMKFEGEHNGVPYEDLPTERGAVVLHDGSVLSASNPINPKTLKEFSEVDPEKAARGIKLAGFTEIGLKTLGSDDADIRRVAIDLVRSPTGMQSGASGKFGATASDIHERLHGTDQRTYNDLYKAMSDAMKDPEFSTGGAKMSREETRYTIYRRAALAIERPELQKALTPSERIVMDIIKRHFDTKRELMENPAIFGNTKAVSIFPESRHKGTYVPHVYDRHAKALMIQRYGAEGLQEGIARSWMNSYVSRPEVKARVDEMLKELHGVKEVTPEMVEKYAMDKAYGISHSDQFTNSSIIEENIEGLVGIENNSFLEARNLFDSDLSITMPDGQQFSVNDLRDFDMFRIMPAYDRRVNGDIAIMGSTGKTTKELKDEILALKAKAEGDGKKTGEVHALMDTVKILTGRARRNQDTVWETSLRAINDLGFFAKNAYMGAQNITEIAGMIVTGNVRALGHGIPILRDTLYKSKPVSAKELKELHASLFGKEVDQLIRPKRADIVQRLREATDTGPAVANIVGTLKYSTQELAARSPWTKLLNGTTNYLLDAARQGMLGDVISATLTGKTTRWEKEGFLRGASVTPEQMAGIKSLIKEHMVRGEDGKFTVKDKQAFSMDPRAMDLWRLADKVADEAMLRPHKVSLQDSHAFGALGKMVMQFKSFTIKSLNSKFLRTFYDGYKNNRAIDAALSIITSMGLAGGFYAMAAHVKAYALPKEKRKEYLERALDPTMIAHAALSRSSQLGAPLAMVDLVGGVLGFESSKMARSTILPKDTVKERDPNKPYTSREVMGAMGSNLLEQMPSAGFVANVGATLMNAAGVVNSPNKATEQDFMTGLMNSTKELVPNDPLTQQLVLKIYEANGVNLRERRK"}, "[2]": {"biological_target": "the molecule itself"}},
  "data": [
    {"binder": "B1", "values": [
      {"measurement": "stoichiometry N", "setting": "[1]", "result": "1 gp15:gp16 (6:6)"},
      {"measurement": "stoichiometry N", "setting": "[2]", "result": 6}
    ]}
  ]
}
